Test results from US20200157198A1 (POPULAS BIOPHARMACEUTICAL WUHAN, published 2020).
Values belong to the molecule of their own block, whether it stands above or below them.

Assays:
[1] = target: polypeptide C8079BB030-1 (…); test: indirect ELISA on coated peptide (1 ug/ml); unimmunized serum 1:1,000; column No. 1958
[2] = target: polypeptide C8079BB030-1 (…); test: indirect ELISA on coated peptide (1 ug/ml); unimmunized serum 1:1,000; column No. 1954
[3] = target: polypeptide C8079BB030-1 (…); test: indirect ELISA on coated peptide (1 ug/ml); unimmunized serum 1:1,000; column No. 1956
[4] = target: polypeptide C8079BB030-1 (…); test: indirect ELISA on coated peptide (1 ug/ml); unimmunized serum 1:1,000; column No. 1955
[5] = target: polypeptide C8079BB030-1 (…); test: indirect ELISA on coated peptide (1 ug/ml); unimmunized serum 1:1,000; column No. 1957
[6] = target: T1, HA-tagged human Nav1.9 expressed in ND7/23 cells (human, UniProt Q9UI33 1-1791, limits assumed); test: Western blot of lysate of ND7/23 cells transfected with HA-hNav1.9; antibody 1:300
T1 construct: Assayed as SDS-PAGE-separated lysate of transfected ND7/23 cells (Western blot); also called HA-hNav1.9; human Nav1.9-HA; not shown: HA tag
T1 sequence (Q9UI33 whole entry): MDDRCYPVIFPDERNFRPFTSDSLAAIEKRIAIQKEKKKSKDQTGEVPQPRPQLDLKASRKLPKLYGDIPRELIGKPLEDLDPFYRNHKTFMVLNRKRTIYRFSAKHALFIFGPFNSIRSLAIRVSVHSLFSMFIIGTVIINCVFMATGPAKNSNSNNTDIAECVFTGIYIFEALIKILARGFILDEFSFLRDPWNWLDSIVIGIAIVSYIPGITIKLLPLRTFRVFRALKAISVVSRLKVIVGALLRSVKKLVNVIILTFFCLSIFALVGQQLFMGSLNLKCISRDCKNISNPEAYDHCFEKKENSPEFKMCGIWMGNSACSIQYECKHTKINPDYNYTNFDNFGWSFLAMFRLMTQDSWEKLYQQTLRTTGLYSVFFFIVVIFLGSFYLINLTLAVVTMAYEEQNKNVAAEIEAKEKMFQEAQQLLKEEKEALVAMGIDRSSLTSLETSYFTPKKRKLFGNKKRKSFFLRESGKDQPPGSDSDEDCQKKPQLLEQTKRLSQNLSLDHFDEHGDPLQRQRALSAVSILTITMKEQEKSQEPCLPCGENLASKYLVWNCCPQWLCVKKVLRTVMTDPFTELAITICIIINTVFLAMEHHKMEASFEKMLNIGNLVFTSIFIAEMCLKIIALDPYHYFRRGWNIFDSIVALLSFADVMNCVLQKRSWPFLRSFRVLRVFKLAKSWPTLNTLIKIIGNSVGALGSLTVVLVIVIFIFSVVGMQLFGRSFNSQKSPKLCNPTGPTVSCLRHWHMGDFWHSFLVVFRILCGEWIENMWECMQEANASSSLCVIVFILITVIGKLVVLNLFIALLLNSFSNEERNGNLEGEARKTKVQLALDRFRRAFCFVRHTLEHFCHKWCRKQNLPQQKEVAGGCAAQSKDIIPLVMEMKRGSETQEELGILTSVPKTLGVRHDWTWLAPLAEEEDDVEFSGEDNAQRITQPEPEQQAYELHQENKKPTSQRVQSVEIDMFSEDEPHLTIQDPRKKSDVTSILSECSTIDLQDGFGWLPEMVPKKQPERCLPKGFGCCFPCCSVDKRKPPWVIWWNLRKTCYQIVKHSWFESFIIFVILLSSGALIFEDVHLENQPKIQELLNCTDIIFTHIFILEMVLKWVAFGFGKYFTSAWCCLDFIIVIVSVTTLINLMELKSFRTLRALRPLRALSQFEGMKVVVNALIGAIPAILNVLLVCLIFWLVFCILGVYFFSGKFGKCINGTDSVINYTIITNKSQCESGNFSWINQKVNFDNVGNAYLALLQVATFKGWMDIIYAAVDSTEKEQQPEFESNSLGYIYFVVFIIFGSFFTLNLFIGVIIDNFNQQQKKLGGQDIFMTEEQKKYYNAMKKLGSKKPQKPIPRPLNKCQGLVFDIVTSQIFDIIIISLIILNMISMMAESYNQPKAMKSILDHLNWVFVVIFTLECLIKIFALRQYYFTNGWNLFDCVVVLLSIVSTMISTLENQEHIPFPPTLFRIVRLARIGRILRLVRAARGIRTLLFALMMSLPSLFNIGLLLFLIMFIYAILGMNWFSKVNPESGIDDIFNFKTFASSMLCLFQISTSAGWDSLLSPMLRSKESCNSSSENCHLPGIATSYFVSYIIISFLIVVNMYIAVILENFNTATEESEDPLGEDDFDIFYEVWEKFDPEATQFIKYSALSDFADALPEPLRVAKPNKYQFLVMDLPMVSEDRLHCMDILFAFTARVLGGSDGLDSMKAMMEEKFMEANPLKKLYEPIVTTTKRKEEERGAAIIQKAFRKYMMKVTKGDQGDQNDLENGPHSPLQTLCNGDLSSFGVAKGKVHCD
Procedure: 4. The cell lysate was centrifuged at 12000 rpm for 10 minutes at 4° C. to collect the cell lysis supernatant.
6. After […], the cells were incubated with HA tag (1:2000) antibody and 5A2F9-4 (1:300) antibody for 1 hour at room temperature.
8. A digoxigenin-labeled anti-mouse antibody (1:20000) was added and incubated for 1 hour at room temperature;

- OD value (450 nm) [1]: 0.104 OD450
- OD value (450 nm) [2]: 0.072 OD450
- OD value (450 nm) [3]: 0.086 OD450
- OD value (450 nm) [4]: 0.066 OD450
- OD value (450 nm) [5]: 0.088 OD450
Molecule: negative control of unimmunized serum

- binding result [6]: binds
B1: 5A2F9-4 antibody (antibody, V domains shown)
VH: QVQLQQPGAELVKPGASVKLSCKASGYTFTSYWMHWVKQRPGQGLEWIGEINPRNGRINQNEKFKSKATLTVAKSSSTAYMQLSSLTSEDSAVYYCSRGGGSSAEGGYWGQGTTLTVSS
VL: DVLMTQTPLSLPVSLGDQASISCRSSQSIVHSNGNTYLDWYLQKPGQSPKLLIYKVFNRLSGVPDRFSGSGSGTDFTLKISRVEAEDLGVYYCFQGSHVPLTFGAGTKLELQ
notes: Mouse hybridoma monoclonal antibody
